{
  "source": "paper PMC9719739",
  "molecular_target": "CaV1.2 C-terminal domain, residues 1520-1669 (two channel EF-hand motifs, pre-IQ and IQ-motif) (rabbit) (UniProt P15381)",
  "sequence (P15381 1520-1669)": "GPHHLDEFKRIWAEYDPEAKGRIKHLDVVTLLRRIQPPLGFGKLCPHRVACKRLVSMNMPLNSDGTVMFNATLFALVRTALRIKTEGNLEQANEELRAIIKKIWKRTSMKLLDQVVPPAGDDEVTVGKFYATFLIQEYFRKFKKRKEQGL",
  "assay": "SEC",
  "data": [
    {"substance": "Calmodulin (from UniProt P0DP23 1-149) (natural protein)", "values": [
      {"measurement": "stoichiometry N (CaM per CT(1520-1669) (4:4))", "value": 1}
    ]}
  ]
}
